Test [1] deals with T1, monovalent hVISTA-ECD (amino acids 32-193 of SEQ ID NO: 1 with a 7xHis tail) (UniProt Q9H7M9 33-193). As to the kind of experiment: SPR; pH 6.0.
Test [2] concerns the target T1, monovalent hVISTA-ECD (amino acids …). As to the kind of experiment: SPR; pH 6.0. This is another data set of the same source.

Read-outs that look alike come from different tables or passages of the source.

T1 sequence (Q9H7M9 other isoform, or with tags, fused parts or gaps): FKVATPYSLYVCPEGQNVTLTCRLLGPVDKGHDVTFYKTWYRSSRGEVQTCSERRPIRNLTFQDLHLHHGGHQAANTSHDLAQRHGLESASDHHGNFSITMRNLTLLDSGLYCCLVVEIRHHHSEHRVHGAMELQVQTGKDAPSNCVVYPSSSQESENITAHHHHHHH

B1: P1-061029.IgG1.3 (antibody, V domains shown)
VH: EVQLVESGGGLVQPGKSLRLSCAASGFTLDDYAMHWVRQAPGKGLEWVSGINWNSANIGYADSVKGRFTISRDNAKNSLYLQMNSLRTEDTALYYCAKVPGYSGGWIDAFDVWGQGTMVTVSS
VL: not shown
As for B1, the equilibrium dissociation constant (Kd) in test [1] and in test [2] was 4.5 nM in each case.

The record behind these values is US20220073617A1 (published 2022).
